The text below walks through data of patent publication US20170081400A1 (CEPHALON, published 2017).

Positions count from the first letter of the chain named.

B1: 320-345 (antibody, human IgG1, name in Kabat numbering, V domains shown)
VH: QVQLVQSGAEVKKPGASVKVSCKASGYTFTSYDINWVRQAPGQGLEWMGWLNPNSGNTGYAQKFQGRVTMTADRSTSTAYMELSSLRSEDTAVYYCAREVPETAAFEYWGQGTLVTVSS
VL: QSVLTQPPSVSGAPGQRVTISCTSSSSDIGAGLGVHWYQQLPGTAPKLLIEGYYNRPSGVPDRFSGSKSGTSASLTITGLLPEDEGDYYCQSYDKTLSALFGGGTKLTVLG
notes: human IgG1, lambda
B2: 320-465 (antibody, human IgG1, name in Kabat numbering, V domains shown)
VH: B1 VH with N35Q
VL: B1 VL with K95G
notes: human IgG1, lambda
B3: 320-453 (antibody, human IgG1, name in Kabat numbering, V domains shown)
VH: B1 VH with D33Y
VL: B1 VL with K95G
notes: human IgG1, lambda
B4: 320-459 (antibody, human IgG1, name in Kabat numbering, V domains shown)
VH: B1 VH with I34K
VL: B1 VL with K95G
notes: human IgG1, lambda
B5: 320-454 (antibody, human IgG1, name in Kabat numbering, V domains shown)
VH: B1 VH with I34A
VL: B1 VL with K95G
notes: human IgG1, lambda
B6: 320-437 (antibody, human IgG1, name in Kabat numbering, V domains shown)
VH: B1 VH with S31Y
VL: B1 VL with K95G
notes: human IgG1, lambda
B7: 320-452 (antibody, human IgG1, name in Kabat numbering, V domains shown)
VH: B1 VH with D33W
VL: B1 VL with K95G
notes: human IgG1, lambda
B8: 320-462 (antibody, human IgG1, name in Kabat numbering, V domains shown)
VH: B1 VH with I34Y
VL: B1 VL with K95G
notes: human IgG1, lambda
B9: 320-444 (antibody, human IgG1, name in Kabat numbering, V domains shown)
VH: B1 VH with Y32L
VL: B1 VL with K95G
notes: human IgG1, lambda
B10: 320-455 (antibody, human IgG1, name in Kabat numbering, V domains shown)
VH: B1 VH with I34S
VL: B1 VL with K95G
notes: human IgG1, lambda
B11: 320-434 (antibody, human IgG1, name in Kabat numbering, V domains shown)
VH: B1 VH with S31K
VL: B1 VL with K95G
notes: human IgG1, lambda
B12: 320-433 (antibody, human IgG1, name in Kabat numbering, V domains shown)
VH: B1 VH with S31D
VL: B1 VL with K95G
notes: human IgG1, lambda
B13: 320-438 (antibody, human IgG1, name in Kabat numbering, V domains shown)
VH: B1 VH with Y32A
VL: B1 VL with K95G
notes: human IgG1, lambda
B14: 320-456 (antibody, human IgG1, name in Kabat numbering, V domains shown)
VH: B1 VH with I34Q
VL: B1 VL with K95G
notes: human IgG1, lambda
B15: 320-449 (antibody, human IgG1, name in Kabat numbering, V domains shown)
VH: B1 VH with D33H
VL: B1 VL with K95G
notes: human IgG1, lambda
B16: 320-442 (antibody, human IgG1, name in Kabat numbering, V domains shown)
VH: B1 VH with Y32H
VL: B1 VL with K95G
notes: human IgG1, lambda
B17: 320-461 (antibody, human IgG1, name in Kabat numbering, V domains shown)
VH: B1 VH with I34W
VL: B1 VL with K95G
notes: human IgG1, lambda
B18: 320-451 (antibody, human IgG1, name in Kabat numbering, V domains shown)
VH: B1 VH with D33L
VL: B1 VL with K95G
notes: human IgG1, lambda
B19: 320-440 (antibody, human IgG1, name in Kabat numbering, V domains shown)
VH: B1 VH with Y32Q
VL: B1 VL with K95G
notes: human IgG1, lambda
B20: 320-447 (antibody, human IgG1, name in Kabat numbering, V domains shown)
VH: B1 VH with D33S
VL: B1 VL with K95G
notes: human IgG1, lambda
B21: 320-441 (antibody, human IgG1, name in Kabat numbering, V domains shown)
VH: B1 VH with Y32D
VL: B1 VL with K95G
notes: human IgG1, lambda
B22: 320-439 (antibody, human IgG1, name in Kabat numbering, V domains shown)
VH: B1 VH with Y32S
VL: B1 VL with K95G
notes: human IgG1, lambda
B23: 320-446 (antibody, human IgG1, name in Kabat numbering, V domains shown)
VH: B1 VH with D33A
VL: B1 VL with K95G
notes: human IgG1, lambda
B24: 320-436 (antibody, human IgG1, name in Kabat numbering, V domains shown)
VH: B1 VH with S31W
VL: B1 VL with K95G
notes: human IgG1, lambda
B25: 320-435 (antibody, human IgG1, name in Kabat numbering, V domains shown)
VH: B1 VH with S31L
VL: B1 VL with K95G
notes: human IgG1, lambda
B26: 320-458 (antibody, human IgG1, name in Kabat numbering, V domains shown)
VH: B1 VH with I34H
VL: B1 VL with K95G
notes: human IgG1, lambda
B27: 320-460 (antibody, human IgG1, name in Kabat numbering, V domains shown)
VH: B1 VH with I34L
VL: B1 VL with K95G
notes: human IgG1, lambda
B28: 320-466 (antibody, human IgG1, name in Kabat numbering, V domains shown)
VH: B1 VH with N35D
VL: B1 VL with K95G
notes: human IgG1, lambda
B29: 320-432 (antibody, human IgG1, name in Kabat numbering, V domains shown)
VH: B1 VH with S31Q
VL: B1 VL with K95G
notes: human IgG1, lambda

The first experiment deals with T1, human TL1A extracellular domain with N-terminal HIS and FLAG tag (human, UniProt O95150 72-251).
T1 construct: the whole entry is named
T1 sequence: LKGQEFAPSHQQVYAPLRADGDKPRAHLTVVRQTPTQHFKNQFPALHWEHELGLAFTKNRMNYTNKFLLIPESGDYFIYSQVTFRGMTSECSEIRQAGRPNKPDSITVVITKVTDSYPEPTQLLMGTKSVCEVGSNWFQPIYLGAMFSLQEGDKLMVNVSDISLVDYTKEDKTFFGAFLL
In words: SPR Run 4, purified Ab captured on Protein A, TL1A 5 ug/mL, timepoint 44. The source says:
(§1) 1.5. Antibody expression and antigen binding as determined by SPR. Using a CM5 sensor chip (GE Healthcare) Protein A (Pierce) was coupled to the chip surface using an amine coupling kit (GE Healthcare). Protein A was coupled on flow cell 1 and 2 (or alternatively 3 and 4) using a BIACORE® T200. […] The amount of supernatant or purified protein (as well as the concentration) injected during the capture stage varied between runs and is specified in the header of the Tables 3-11. At the end of injection of the supernatant or purified antibody the change in response units was measured. This value was reported as Capture Level in Tables 3-11. […] The response units were measured prior to the end of the dissociation phase. […] The sensorgrams were double referenced (flow cell 2 is subtracted from flow cell 1 and a buffer blank). As there were a large number of antibody variants to screen, these were screened across different runs (Tables 3-11). […] A summary of the conditions used in each run is below:
(§2) 2.1. […] In some experiment the antibodies were purified using Protein A chromatography (See 1.4) and purified antibodies were used in BIACORE® (GE Healthcare) experiments.
For B1, the “TL1A Binding Level (Early)” value is 163 RU.

The next experiment addresses T1, human TL1A extracellular domain with …. In words: SPR Run 6, purified Ab captured on Protein A, TL1A 5 ug/mL, timepoint 44.
From the text: as §1, §2
On to B2, for which the “TL1A Binding Level (Early)” value was determined as 92 RU.
As for B3, the “TL1A Binding Level (Early)” value turned out to be 111 RU.
With B4, the “TL1A Binding Level (Early)” value was 20 RU.
Still for that read-out and setting: then B5, with 43 RU.
The same measure, in the same setting: the same measure for B6: 119 RU.
Same read-out and setting: the same measure for B7: 84 RU; for B8: 58 RU; for B9: 107 RU.
As to B10, the “TL1A Binding Level (Early)” value is 27 RU.
As to B11, the “TL1A Binding Level (Early)” value turned out to be 125 RU.
On the same count and under the same terms, the same measure for B12: 90 RU; for B13: 126 RU.
The same measure, in the same setting: the same measure for B14: 52 RU.
On the same count and under the same terms, then B15, with 76 RU; and B16, with 124 RU.
Consider B17, for which the “TL1A Binding Level (Early)” value amounted to 87 RU.
On the same count and under the same terms, then B18, with 19 RU.
The same measure, in the same setting: then B19, with 108 RU; and B20, with 37 RU.
In the case of B21, the “TL1A Binding Level (Early)” value turned out to be 80 RU.
On to B22, for which the “TL1A Binding Level (Early)” value stood at 119 RU.
The same measure, in the same setting: then B23, with 18 RU; and B24, with 129 RU.
Still for that read-out and setting: the same measure for B25: 92 RU.
On the same count and under the same terms, the same measure for B26: 59 RU; for B27: 114 RU; for B28: 93 RU.
B29: the “TL1A Binding Level (Early)” value came to 116 RU.

Another experiment has the same target. Nature of the experiment: SPR Run 6, purified Ab captured on Protein A, TL1A 5 ug/mL, timepoint 170.
From the text: as §1, §2
As for B2, the “TL1A Binding Level (Late)” value amounted to 78 RU.
Still for that read-out and setting: then B3, with 104 RU; and B4, with 17 RU; and B5, with 37 RU.
Still for that read-out and setting: then B6, with 109 RU; and B7, with 78 RU.
Turning to B8, the “TL1A Binding Level (Late)” value was found to be 52 RU.
Same read-out and setting: the same measure for B9: 95 RU; for B10: 23 RU; for B11: 113 RU.
On the same count and under the same terms, then B12, with 83 RU.
Still for that read-out and setting: then B13, with 116 RU; and B14, with 46 RU; and B15, with 59 RU.
Turning to B16, the “TL1A Binding Level (Late)” value was determined as 113 RU.
For the molecule B17, the “TL1A Binding Level (Late)” value was 82 RU.
With B18, the “TL1A Binding Level (Late)” value stood at 8 RU.
Still for that read-out and setting: then B19, with 97 RU.
The same measure, in the same setting: the same measure for B20: 13 RU; for B21: 67 RU; for B22: 108 RU.
Same read-out and setting: then B23, with 8 RU; and B24, with 118 RU; and B25, with 83 RU.
As to B26, the “TL1A Binding Level (Late)” value amounted to 53 RU.
Same read-out and setting: the same measure for B27: 105 RU; for B28: 86 RU.
Consider B29, for which the “TL1A Binding Level (Late)” value amounted to 106 RU.

The target is the same in a further experiment. Nature of the experiment: SPR Run 4, purified Ab captured on Protein A, TL1A 5 ug/mL, timepoint 220.
From the text: as §1, §2
B1: the “TL1A Binding Level (Late)” value worked out at 154 RU.

In a further experiment the target is T2, human TL1A extracellular domain with N-terminal HIS and FLAG tag (human) (UniProt O95150).
T2 sequence: T1 sequence
Nature of the experiment: cell-based or functional assay.
On to B1, for which the Antibody IC50, TL1A induced caspase potency assay in TF-1 cells came out at 0.02 µg/mL and the Fold improvement over 320-179, TL1A induced caspase potency assay in TF-1 cells stood at 1 fold.
